“And” between values parts separate entries of the source, which are not always exact repeats. Equal entries are not always repeated.

The data set concerns the molecule itself. The data set can be described thus: cryo-EM structure.

B1: Mycobacterium tuberculosis encapsulin shell protein (Enctb) (natural protein)
chain: MNNLYRDLAPVTEAAWAEIELEAARTFKRHIAGRRVVDVSDPGGPVTAAVSTGRLIDVKAPTNGVIAHLRASKPLVRLRVPFTLSRNEIDDVERGSKDSDWEPVKEAAKKLAFVEDRTIFEGYSAASIEGIRSASSNPALTLPEDPREIPDVISQALSELRLAGVDGPYSVLLSADVYTKVSETSDHGYPIREHLNRLVDGDIIWAPAIDGAFVLTTRGGDFDLQLGTDVAIGYASHDTDTVRLYLQETLTFLCYTAEASVALSH
notes: also called Rv0798c; copies: 60
Broadly, the stoichiometry N is the number of molecules, sites or subunits per partner or assembly. With B1, the “stoichiometry N” value is 60 and 48 and 52 and 54.

The values are drawn from paper PMC11830004, “In situ and in vitro cryo-EM reveal structures of mycobacterial encapsulin assembly intermediates” (Communications Biology, 2025).
